{"source": "patent US20180327500A1", "about": "(SYMPHOGEN A S, published 2018)", "binders": {"B1": {"name": "humanized antibody 9006 (antibody, human IgG1, kappa, V domains shown)", "VH": "QVQLVQSGSELKKPGASVKVSCKASGYTFTNFRMNWVKQAPGQGLKWMGWINTYTGEPTYVDDLKGRFVFSLDTSVSTAYLQISSLKAEDTAVYYCARKGIARAMDYWGQGTTVTVSS", "VL": "DIVMTQSPDSLAVSLGERATINCKSSQSLLDSGNQKNYLAWYQQKPGQPPKLLIFGASTRESGVPDRFSGSGSGTDFTLTISSLQAEDVAVYYCQNDHSYPYTFGQGTKLEIKR", "notes": "also called Hu9006; hu9006"}, "B2": {"name": "humanized antibody 9338 (antibody, human IgG1, kappa, V domains shown)", "VH": "QVQLVQSGAEVKKPGSSVKVSCKASGYTFTSYWMHWVRQAPGQGLEWMGYINPSSGHIENNQKFKDRVTITADKSTSTAYMELSSLRSEDTAVYYCARGRFAYWGQGTLVTVSS", "VL": "EIVLTQSPATLSLSPGERATLSCSASSSVSSGYLYWYQQKPGQAPRLLIYSTSNLASGIPARFSGSGSGTDFTLTISSLEPEDFAVYYCHQWSSYPFTFGSGTKLEIKR", "notes": "also called Hu9338; hu9338"}}, "key": {"[1]": {"target": "T1, His tagged human MET ECD (Sinobiological) (human, UniProt P08581 25-932)", "T1 construct": "Bought monovalent antigen; also called human MET antigen; not shown: His tag", "experiment": "BLI (Octet QK384); antibody captured on anti-human Fc sensors, monovalent MET ECD in solution, 1:1 Langmuir fit"}, "Mouse blade 2": {"target": "T2, Mouse blade 2", "T2 construct": "human/mouse chimera on transfected HEK293 cells; also called Mouse blade 2-IPT4", "T2 MET ECD-SV5-GPI fusion": "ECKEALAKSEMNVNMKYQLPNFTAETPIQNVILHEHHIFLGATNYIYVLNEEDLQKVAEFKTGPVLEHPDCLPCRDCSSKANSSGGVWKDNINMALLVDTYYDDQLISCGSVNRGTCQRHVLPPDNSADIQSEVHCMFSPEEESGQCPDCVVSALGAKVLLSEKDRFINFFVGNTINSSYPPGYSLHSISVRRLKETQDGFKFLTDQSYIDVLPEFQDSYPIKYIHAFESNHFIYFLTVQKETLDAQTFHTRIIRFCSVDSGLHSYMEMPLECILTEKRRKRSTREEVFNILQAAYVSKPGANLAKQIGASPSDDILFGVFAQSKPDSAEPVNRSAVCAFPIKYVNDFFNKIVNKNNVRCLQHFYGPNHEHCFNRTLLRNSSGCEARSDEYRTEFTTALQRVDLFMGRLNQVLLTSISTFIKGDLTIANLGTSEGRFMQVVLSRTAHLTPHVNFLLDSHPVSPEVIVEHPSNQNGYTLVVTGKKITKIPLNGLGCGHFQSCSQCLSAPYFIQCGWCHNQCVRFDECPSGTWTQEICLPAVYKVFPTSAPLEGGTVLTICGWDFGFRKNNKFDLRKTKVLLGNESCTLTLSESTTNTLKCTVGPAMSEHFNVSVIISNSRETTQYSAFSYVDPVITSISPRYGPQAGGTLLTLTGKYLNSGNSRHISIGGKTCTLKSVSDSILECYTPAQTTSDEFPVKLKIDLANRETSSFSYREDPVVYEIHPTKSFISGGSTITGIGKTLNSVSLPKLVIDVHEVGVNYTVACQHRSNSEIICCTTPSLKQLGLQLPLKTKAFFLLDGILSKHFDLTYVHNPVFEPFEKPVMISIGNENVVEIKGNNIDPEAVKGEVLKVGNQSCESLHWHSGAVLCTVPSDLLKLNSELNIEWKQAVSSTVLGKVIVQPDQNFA", "experiment": "flow cytometry on transfected HEK293 cells;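 also: antibodies applied at 50 µg/ml, binding called specific when fluorescence exceeds the mean signal on a negative control chicken or mouse MET construct plus four SD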", "method": "(§1) Cut-off values defined as the average fluorescence signal of all antibodies tested at 50 μg/ml to the negative control chicken or mouse MET construct+four standard deviations were employed to discriminate background binding from specific binding for the domain exchange or blade exchange constructs."}, "[2]": {"target": "T1, His tagged human MET ECD …", "experiment": "SPR (Bio-Rad XPR-36); antibody captured on anti-human IgG Fc surface, MET ECD 25 to 1.56 nM, 1:1 Langmuir fit", "method": "His tagged human or cynomolgus MET ECD antigens were purchased from Sinobiological, China. […] Measurements were conducted with a plate rotation speed of 1000 rpm and sensors were regenerated and reused by brief 5 second alternations between exposure to 10 mM Glycine:HCl buffer (pH 1.5) or PBS buffer containing 1% BSA and 0.001% Tween 20 three times. For the Surface Plasmon Resonance experiments conducted on the Bio-Rad XPR-36 instrument, anti-MET antibodies were adjusted to a concentration of 0.25-0.5 μg/ml and captured on anti-human IgG Fc surfaces generated by immobilizing a monoclonal anti-human Fc antibody (Biacore, Denmark). […] The recorded binding responses were fitted to a simple Langmuir 1:1 binding model for calculation of the on-rate (kon or ka), off-rate (koff or kd) and affinity (KD) constants using double referencing."}, "Mouse Blade 1-2": {"target": "T3, Mouse Blade 1-2", "T3 construct": "human/mouse chimera on transfected HEK293 cells; also called AA 25-162", "T3 MET ECD-SV5-GPI fusion": "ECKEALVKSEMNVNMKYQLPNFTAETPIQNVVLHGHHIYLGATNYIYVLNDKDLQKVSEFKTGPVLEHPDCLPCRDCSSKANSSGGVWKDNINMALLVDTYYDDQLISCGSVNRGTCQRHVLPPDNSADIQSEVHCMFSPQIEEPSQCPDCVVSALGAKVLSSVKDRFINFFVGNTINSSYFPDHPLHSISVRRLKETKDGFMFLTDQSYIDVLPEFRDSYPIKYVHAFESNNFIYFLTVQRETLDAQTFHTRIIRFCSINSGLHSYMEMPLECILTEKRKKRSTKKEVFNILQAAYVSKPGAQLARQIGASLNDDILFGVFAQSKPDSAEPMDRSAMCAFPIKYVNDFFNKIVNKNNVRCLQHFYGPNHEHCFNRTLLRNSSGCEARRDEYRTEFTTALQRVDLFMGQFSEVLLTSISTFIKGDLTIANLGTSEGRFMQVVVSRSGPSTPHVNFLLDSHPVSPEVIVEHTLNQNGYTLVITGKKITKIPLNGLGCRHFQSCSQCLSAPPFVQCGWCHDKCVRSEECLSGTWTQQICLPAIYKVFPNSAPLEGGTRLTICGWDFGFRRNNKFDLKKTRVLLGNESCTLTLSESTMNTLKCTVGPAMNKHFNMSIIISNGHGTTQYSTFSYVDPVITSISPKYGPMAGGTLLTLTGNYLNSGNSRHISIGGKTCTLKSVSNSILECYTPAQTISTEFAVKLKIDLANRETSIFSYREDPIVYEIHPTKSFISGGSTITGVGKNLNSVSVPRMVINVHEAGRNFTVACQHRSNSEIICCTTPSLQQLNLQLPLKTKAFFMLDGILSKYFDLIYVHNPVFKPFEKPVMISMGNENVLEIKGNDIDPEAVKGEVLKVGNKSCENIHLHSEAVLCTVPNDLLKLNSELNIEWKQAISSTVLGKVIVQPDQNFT", "experiment": "flow cytometry on transfected HEK293 cells", "method": "as §1"}}}
{"binder": "B1", "values": [{"measurement": "Kd", "setting": "[1]", "value": 1.2, "unit": "nM"}, {"measurement": "koff", "setting": "[1]", "value": "7.6e-05", "unit": "s⁻¹"}, {"measurement": "kon", "setting": "[1]", "value": 62000, "unit": "M⁻¹ s⁻¹"}, {"measurement": "binding result", "setting": "Mouse blade 2", "value": "no binding (tested: 50 µg/ml)"}, {"measurement": "Kd", "setting": "[2]", "value": 0.055, "unit": "nM"}, {"measurement": "koff", "setting": "[2]", "value": "1.1e-05", "unit": "s⁻¹"}, {"measurement": "kon", "setting": "[2]", "value": 190000, "unit": "M⁻¹ s⁻¹"}]}
{"binder": "B2", "values": [{"measurement": "binding result", "setting": "Mouse Blade 1-2", "value": "no binding (tested: 50 µg/ml)"}, {"measurement": "binding result", "setting": "Mouse blade 2", "value": "no binding (tested: 50 µg/ml)"}]}
